Results as given in the nanobody polyreactivity screen of Harvey et al. (2022).

assay: yeast display, Sf9 membrane polyspecificity reagent, FACS + sequencing; frameworks hold sequencing errors
How it was run: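 Sorting gates, low and high (top ~1%), were placed on anti-HA fluorescence to track expression and on streptavidin fluorescence to track reagent binding. A clone's polyreactivity label is taken from the gate it came out of. The reagent was 10% biotinylated, detergent-solubilized Sf9 membrane, applied for 1 hour at 4 °C to galactose-induced yeast display cells.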

Row | Sequence | polyreactivity (PSR sort gate)
1 | QVQLVESGGGFLQAGGSLRLSCAASGRIFNYYAMGWYRQAPGTERELVAGINWSGTRTYYADSVKGRFTISRDNAKNTVYLQMNSLKPEDTAVYYCNAGRTWRAFTGDEYWGQATQVTVSS | high polyreactivity
2 | QVQLVESGGGFVQAGCSLRLSCGASGLTFKTYAMGWYSQARGKERELVAAMSGTGGGTYYADSVKGRFTISRDNAKKTVYLQMNSQKPEDTEVYYCAALHQAYRGFDYWGQGTQVTVSS | high polyreactivity
3 | QVQLVESGGGFVQAGGSLRLSCAASGFIFDTYAMGWYRQAPGKERELVAAITTTGGSTYYADSVKGRFTISRDTAKNTVYLQMNSLKPEDTAVYYCAARHYRIHYDYWGQGSQVTVSS | high polyreactivity
4 | QVQLVESGGGFVQAGGSLRLSCAASGLTFVANAMGWYRQAPGTESEMVAGITQTGGSTYYADSVKGRFTISRDNAKNTVYLQMISLKPEDTAVYYCAATYRRLRYGKLYYYWGQGTQVTVSS | high polyreactivity
5 | QVQLVESGGGFVQAGGSLRLSCAASGNIFPYNAMGWYRQAPGKERELVAAISSGGSTNYADSVKGRFTISRDNAKNTVYLQLNSLQPEDTAVYYCAAARSGGYDYWGQGTQVTVSS | low polyreactivity
6 | QVQLVESGGGFVQAGGSLRLSCAASGRIFRYYTMGWYRKAPGKERELVAAISWTGASTYYADSVKGRFTISLDNAKNTLYLQMNSLKPEDTAVYYCAADSYIAHHGFAMDYWGQGTQVTVSS | low polyreactivity
7 | QVQLVESGGGFVQAGGSLRLSCAASGRTFLAMGWYRQAPGKERELVAAISRTNYADSVKGRFTISRDNAKNTVYLQMNSLKPEDTAVYYCNARRSYFLRYGVNYWGQGTQVTVSS | low polyreactivity
8 | QVQLVESGGGFVQAGGSLRLSCAASGRTYTLNAMRWYRQAPGKERELVAAITWGAGSTYYADSVKGRFTISRDNAKNTVYLQMNSLKPEDTAVYYCAARFHGAYYRYRSPSMYYWGQGTQVTVSS | high polyreactivity
9 | QVQLVESGGGFVQAGGSLRLSCAASGSICAGYAMGWYRQAPGKERVLVAGITIGGSTNYADSVKGRFTISRDNAKNTVYLQMNSLKPEDTAVYYCAARRVQSVYRIPRRYHSYGYWGQGTQVTVSS | high polyreactivity
10 | QVQLVESGGGFVQAGGSLRLSCAASGSIFVTYAKGWYRQAPGKERDLVAAIKYSGGSTYYADSVKGRFTISRDYAKNTVYLQMNSLKPEDTAVYYCAADERVDQGWIRMDYWGQGTQVTVSS | low polyreactivity
11 | QVQLVESGGGFVQAGGSLRLSCAASGSTFGPYAMGWSSQAPGKDRELVAGISSGGSTYYADSVKGRFTISRDNAKNTVYLQMNSLKPEDTAVYYCATRYLYRGYSYFAYDYWGQGTQVTVSS | low polyreactivity
12 | QVQLVESGGGFVQAGGSLRLSCAAYGSISVGYTMGWYIQAPGKEREFVAVITGTGGRTRYADSVKGRFTISRDNAKNTVYLQMNSLKPEDTAVYYCAAKIRWRGALYDYWGQGTQVTVSS | high polyreactivity
13 | QVQLVESGGGIDQAGGSLRLSCAASGNIFDYYAMGWYRQAPGKEREFVAAISWSGARTYYADSVKGRFTISRDNAKNTVYLQMNRLKPEDTAVYYCAGGQSWRKNDYRYDYWGQGTQVTVSS | high polyreactivity
14 | QVQLVESGGGIFQAGGSLRLSCAASGSTFDYNAMGWYRQAPGKERELVADITGSGASTSYADSVKGRFTISRDNEKNTVYLQMKILKPEDTAVYYCNADDSYFYELYGYWGQGTQVTVSS | low polyreactivity
15 | QVQLVESGGGIFQEGGSLRLSCAASGLIFRSYDMGWYRQAPGKERELVAAITDLFWSTYYADSVKGRFTISRDNAKNTVYLQMYSLKPEDTAVYYCARDDWVYTNVEMDYWGQVTQVTVSS | high polyreactivity
16 | QVQLVESGGGILQAGGSLRLSCAASGLTFPWYAMGWYRLAPGKERELVAAITHSDGNTYADSVKGRFTISRDKAKNTVYLQMNSLKPEDTAVYYCATDTRSQAYYYWGQGTQVTVSS | low polyreactivity
17 | QVQLVESGGGIVLAGGSLRLSCAASGSIYYANAMGWYRQAPGKERELVAVISSGGSTYYADSVNGRFTISRDNAKNTVYLHMNSLKPEDTAVYYCAAETYYYVLPHWYKYKYGYWGQGTQVTVSS | low polyreactivity
18 | QVQLVESGGGIVQAGCSLRIICAASGYTFGYYAMGSYRQAPGNERQFVAAITIDARTTYADSVKGRFTISRDKAKKTFYLQINSLKADDTAFYYCARGYFPYGYPWRWGYDRFDYWGQGTLVTVSS | low polyreactivity
19 | QVQLVESGGGIVQAGGSLGLSCGASGRTCRKFSMGWYSQAPGNAWEVVAAISSRGGSTYYADSVKGRFTSSRDNAKNTVYLQMNSLIPEDTAVYYCATDSIPPSSEGDYWGQGTQGTVSS | high polyreactivity
20 | QVQLVESGGGIVQAGGSLRISSSASGRIITAYAMGWYRQAPGKERELVAAITRSTTYYADSVKGRFTISRDNAKFSVDLQLHSLKPDDTAVFYCAADYRGTWYGYDYWGQGTHVTVSS | high polyreactivity
21 | QVQLVESGGGIVQAGGSLRLICAASGFIFEFNVMGWYRQSPGKERQLVAAISRSGGSTYYADSVKGRFTISRDNAKNTVYLQMISLKPEDSAVYYCAARSYRSGTHGYNYWGQGTQVTVSS | high polyreactivity
22 | QVQLVESGGGIVQAGGSLRLICAASGFTFSYYAMAWYRQAPGKEREFVAAITRSGSTYYADSVKGRFTISRENAKNTVYLQMISLKPEDTSVYYCAARFLYRYDYWGQGTQVTVSS | high polyreactivity

Row | Sequence | polyreactivity (PSR sort gate)
23 | QVQLVESGGGIVQAGGSLRLICAASGFTFWDYAMGWHRQAPGKERELVAAISWSGGSTYYADSVKGRFTISRDNAKNTVYLQMNSLKPEDTAVYYCNAVHYSRYVHPGHSMYYWGQGTQVTVSS | low polyreactivity
24 | QVQLVESGGGIVQAGGSLRLICAASGITFTVYAMGWDRTAPWKARELVAASCSSGSTTYADSVKGRFTFSRDNAKNTVYLQMNSVKPQDPAVYYCAAEGYYRFSTAYFRKKYEYWGQGTQVTVSS | low polyreactivity
25 | QVQLVESGGGIVQAGGSLRLICAASGRTFKYYAMGWYRQAPGKERELVAAIRSRTGSTYYADSVKGRFTISRDNAKNTVYLQMNSLKPVDTAVYYCAAQPGSYYGPRWYYDDDYWGQGTQVTVSS | high polyreactivity
26 | QVQLVESGGGIVQAGGSLRLICAASGSIFNGYALGWYRQAPGKERDLVAAISWRGGTTYYADSVKGRFSISRDTAKNTVYLQMNSLKPEDTAVYYCAARHFARMGYWGQGTQVTVSS | high polyreactivity
27 | QVQLVESGGGIVQAGGSLRLISAASGIIIDYYAMGWYRQAPGKERELVAAITSGGSTSYADSVKGRFTISRDNAKNTVYLQMNSLKAEDTAVYYCNTEPSGYESGYWGQGTLVTVSS | low polyreactivity
28 | QVQLVESGGGIVQAGGSLRLRCAASGLIFAYNAMGGDRQAPGKEREFVAAINSGGDSTYYADCVKGRFTISRDNAKNTVYLQMNSLKPEDTAVYYCAAVSGNKRYYYWGHGTQVTVSS | low polyreactivity
29 | QVQLVESGGGIVQAGGSLRLSCAASARIFGYNAMGWYRQAPGKERELVADITGSGGSTYYADSVKGRFTISRDNAKNTVYLQMNSLKPEDTAVYYCATPYAVYHVEYGYWGQGTQVTVSS | low polyreactivity
30 | QVQLVESGGGIVQAGGSLRLSCAASGFIFQRYVMGWYRQEPGKERQLVAAISSGGSTNYADSVKGRFTISRDNAKNTVYLQMNSLKAEDTAVYYFAADGFYYRNWGRFRYYYWGLGTQVTVSS | low polyreactivity
31 | QVQLVESGGGIVQAGGSLRLSCAASGFIIGYNAKGWYRQAPGKETELVAAITSRGVRTYYADCVKWRFTISRDNAKNTVYLQMNSLKPEDTAVYYCAKASRGYRSPYGSIGYYYWGQGTQVTVSS | high polyreactivity
32 | QVQLVESGGGIVQAGGSLRLSCAASGFIISPNAMGWYRHAPGKEREFVAAIRYSGTSTSYADSVKGRFTISRDNGKNTVYLQMNSLKPEDTAVYYCAAQYRQRTGMYYWGQGSQVTVSS | high polyreactivity
33 | QVQLVESGGGIVQAGGSLRLSCAASGFTFDIYAMGWYRQAPGTERELVATISFTGDTTSYADSVKGRFTISRDNAKNTVYLQMNSLKPEDTAVYYCAADGSYPLSVGRENLHYAEFDYWGQGTQVTVSS | low polyreactivity
34 | QVQLVESGGGIVQAGGSLRLSCAASGFTFDYYAMGWYRQAPGKERELVAAISWRGTTTYYADSVKGRFTISRDNAKNTVYLQMNSLKPEDTAVYYCAADSLFGHYDYWGQGTQVTVSS | low polyreactivity
35 | QVQLVESGGGIVQAGGSLRLSCAASGFTFKYYARGWYRQAPGKERELVAAIRGSGAGTYYADSVKGRFTISRDNAKNTGYLQMNSLKPEDTAVYYCNKRWTYKWDDYWGQGTQVTVSS | high polyreactivity
36 | QVQLVESGGGIVQAGGSLRLSCAASGFTFSSYAMGWYRQAPGKERELVAAISSGGGSTYYADSVKGRFTISRDNAKNTVYLQMNSLKPEDTAVYYCAASHYYSNGYWGQGTQVTVSS | high polyreactivity
37 | QVQLVESGGGIVQAGGSLRLSCAASGFTFWVYAMGWSRQAPGNEWQLVAAISARGGSTYYADSVKVRFTISRDNAKNTVYLQMNSLKPVDTEVYYCAAEPSGKRSKFYYWGHGTQVTVSS | high polyreactivity
38 | QVQLVESGGGIVQAGGSLRLSCAASGFTIWKYAMGLYRQAPGKERELVAAISVSGGRTNYADSVKGRFTISGDNAKNTVYLQMNSLKPEDTAVYYCIATPWRPYVGGEYWGQGTHVTVSS | high polyreactivity
39 | QVQLVESGGGIVQAGGSLRLSCAASGGTFQRNAMGWYIQAPGKEREFVATITRGGGSTYYADSVKGRFTISRDNAKNTVYFQMNSLKPEDSAVYYCNANTSYYQRYNYWGQGTQVTVSS | high polyreactivity
40 | QVQLVESGGGIVQAGGSLRLSCAASGGTFRVNAMVWYRQAPGKEREFVAAISGSGSSTYYADSVKGRFTISRDNAKNTVYLQMNSLKPEDTAVYYCAARSGVGGDNDYWGQGTQVTVSS | low polyreactivity
41 | QVQLVESGGGIVQAGGSLRLSCAASGIIFDINSMGWYRQAPGKERELVAAITTSVDSTYYAHSVKGRFTISRDNAKNTVYLQMYSLQPEDTAVYYCSVSFVQFTQYDYWGQGTQVTVSS | low polyreactivity
42 | QVQLVESGGGIVQAGGSLRLSCAASGIIFDVYAMGLYRQAPGTERELVAAISKRGGRTYYADSVKWRFTISRDNAKNTVYLQMNSLKPEDTAVYYCAADGQYKHFDYWGQGTQVTVSS | high polyreactivity
43 | QVQLVESGGGIVQAGGSLRLSCAASGIIFRFYAMGWYRQAPGKERELVARIRSRGGSTYYADSVKGRFTISRDNAKNTVYLQMNSLKPEDTAVYYCAAGAGYPYYWGQGTQVTVSS | high polyreactivity
